We go through one molecule from paper PMC5470993, “Discovery and characterization of small molecule Rac1 inhibitors” (Oncotarget, 2017).

The assay concerns the target Recombinant Rac1 (1-192aa), His-tagged fusion protein (UniProt P63000 1-192). The experiment in a line: pull-down; cell-free: 5 μg purified His-Rac1 in 20 μl GTP binding buffer (20 mM Tris-HCl pH 7.6, 100 mM NaCl, 2 mM MgCl2, 1 mM DTT) with 1% BSA, GTP-γS (0.01-10 μM, or 200 nM after 1 h with compound #1 or #6) for 10 min at room temperature, then 1 h with GST-PAK1 on agarose beads; Rac1 immunoblot. The note with it: both partners purified. On the technique in general: In western blotting, separated proteins are transferred to a membrane and probed.

B1: GST-PAK1-PBD (70-117aa) (domain or fragment)
chain: KERPEISLPSDFEHTIHVGFDAVTGEFTGMPEQWARLLQTSNITKSEQ
notes: Held on glutathione/agarose beads; The methods also name a Rac1/Cdc42 assay kit (Upstate Biotechnology); also called GST-PAK1 (RBD); source: E. coli DH5α, purified on glutathione resin; plasmid from Addgene
Regarding B1, the binding result is “binds”.
